Columns and labels:
[1] = target: T1, K8(1-129)/intact K18 heterotypic complex (human, UniProt P05787 2-130; P05783 2-430); assay: ELISA: complex coated at 5 µg/ml, COU-1 in serial dilutions, AP-labeled anti-human kappa antibody
T1 construct: Heterotypic complex of two GST fusion proteins; not shown: glutathione S-transferase (GST) fusion partner, modified pGEX-2T vector
T1 chain 1: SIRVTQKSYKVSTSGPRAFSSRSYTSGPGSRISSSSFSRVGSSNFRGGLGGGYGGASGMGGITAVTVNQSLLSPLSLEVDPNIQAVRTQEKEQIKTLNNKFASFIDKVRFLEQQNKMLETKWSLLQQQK
T1 chain 2: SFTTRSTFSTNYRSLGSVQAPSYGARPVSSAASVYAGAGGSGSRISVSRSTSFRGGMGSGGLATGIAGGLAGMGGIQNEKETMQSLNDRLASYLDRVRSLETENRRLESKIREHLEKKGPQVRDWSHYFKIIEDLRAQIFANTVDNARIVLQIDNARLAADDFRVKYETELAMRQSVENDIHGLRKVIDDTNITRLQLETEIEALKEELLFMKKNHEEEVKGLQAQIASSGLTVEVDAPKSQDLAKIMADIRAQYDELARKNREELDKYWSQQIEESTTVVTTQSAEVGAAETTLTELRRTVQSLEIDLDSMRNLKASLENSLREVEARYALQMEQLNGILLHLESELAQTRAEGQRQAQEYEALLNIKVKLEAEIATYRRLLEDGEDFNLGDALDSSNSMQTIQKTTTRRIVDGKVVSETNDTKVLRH

[2] = target: T2, K18(1-356) GST fusion protein (human, UniProt P05783 2-357); assay: Western blot of SDS-PAGE-separated K18 GST fusion proteins, stained with COU-1 alone
T2 construct: Alone, not complexed; not shown: glutathione S-transferase (GST) fusion partner, modified pGEX-2T vector
T2 sequence: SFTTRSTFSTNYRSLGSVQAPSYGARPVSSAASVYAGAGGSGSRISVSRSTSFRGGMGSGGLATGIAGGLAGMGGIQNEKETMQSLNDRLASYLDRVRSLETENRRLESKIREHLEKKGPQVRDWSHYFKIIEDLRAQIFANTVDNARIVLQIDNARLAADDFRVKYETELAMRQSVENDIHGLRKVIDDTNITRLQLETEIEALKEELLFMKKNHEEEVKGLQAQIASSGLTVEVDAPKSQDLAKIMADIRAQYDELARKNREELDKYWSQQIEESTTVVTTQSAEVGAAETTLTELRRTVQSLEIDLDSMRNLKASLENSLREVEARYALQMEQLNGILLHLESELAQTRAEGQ

[3] = target: T3, K18(1-187) GST fusion protein (human, UniProt P05783 2-188); assay: as above
T3 construct: Alone, not complexed; not shown: glutathione S-transferase (GST) fusion partner, modified pGEX-2T vector
T3 sequence: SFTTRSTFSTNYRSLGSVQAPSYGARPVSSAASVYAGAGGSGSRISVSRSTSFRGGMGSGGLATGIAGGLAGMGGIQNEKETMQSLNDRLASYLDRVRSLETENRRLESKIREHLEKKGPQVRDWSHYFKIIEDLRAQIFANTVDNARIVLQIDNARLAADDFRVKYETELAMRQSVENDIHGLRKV

[4] = target: T4, K18(1-385) GST fusion protein (human, UniProt P05783 2-386); assay: as above
T4 construct: Alone, not complexed; not shown: glutathione S-transferase (GST) fusion partner, modified pGEX-2T vector
T4 sequence: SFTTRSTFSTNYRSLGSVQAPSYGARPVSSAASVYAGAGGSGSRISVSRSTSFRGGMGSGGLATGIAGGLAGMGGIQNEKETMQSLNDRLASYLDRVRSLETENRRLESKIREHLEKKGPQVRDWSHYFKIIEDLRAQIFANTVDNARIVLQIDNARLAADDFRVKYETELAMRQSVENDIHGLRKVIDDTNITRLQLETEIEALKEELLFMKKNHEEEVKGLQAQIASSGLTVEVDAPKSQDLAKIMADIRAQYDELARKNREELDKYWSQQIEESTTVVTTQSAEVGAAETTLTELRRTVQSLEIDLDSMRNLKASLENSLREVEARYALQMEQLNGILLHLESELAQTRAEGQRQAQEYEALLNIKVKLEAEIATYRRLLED

[5] = target: T5, recombinant intact K18 (GST fusion protein) (human, UniProt P05783 2-430); assay: as above
T5 construct: Alone, not complexed with K8; also called full length K18; cytokeratin 18; not shown: glutathione S-transferase (GST) fusion partner, modified pGEX-2T vector
T5 sequence: T1 chain 2

[6] = target: T6, K18(1-312) GST fusion protein (human, UniProt P05783 2-313); assay: as above
T6 construct: Alone, not complexed; not shown: glutathione S-transferase (GST) fusion partner, modified pGEX-2T vector
T6 sequence: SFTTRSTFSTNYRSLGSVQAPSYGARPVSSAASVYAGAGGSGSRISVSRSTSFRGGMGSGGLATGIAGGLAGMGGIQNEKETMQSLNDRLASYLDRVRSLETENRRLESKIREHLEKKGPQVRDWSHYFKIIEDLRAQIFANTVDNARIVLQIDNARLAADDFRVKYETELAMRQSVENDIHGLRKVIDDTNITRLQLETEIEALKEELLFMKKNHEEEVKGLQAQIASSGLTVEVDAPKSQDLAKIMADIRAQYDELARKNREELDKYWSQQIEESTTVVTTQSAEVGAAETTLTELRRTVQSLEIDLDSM

[7] = target: T7, K18(1-124) GST fusion protein (human, UniProt P05783 2-125); assay: as above
T7 construct: Alone, not complexed; not shown: glutathione S-transferase (GST) fusion partner, modified pGEX-2T vector

[8] = target: T8, K18(1-213) GST fusion protein (human, UniProt P05783 2-214); assay: as above
T8 construct: Alone, not complexed; not shown: glutathione S-transferase (GST) fusion partner, modified pGEX-2T vector
T8 sequence: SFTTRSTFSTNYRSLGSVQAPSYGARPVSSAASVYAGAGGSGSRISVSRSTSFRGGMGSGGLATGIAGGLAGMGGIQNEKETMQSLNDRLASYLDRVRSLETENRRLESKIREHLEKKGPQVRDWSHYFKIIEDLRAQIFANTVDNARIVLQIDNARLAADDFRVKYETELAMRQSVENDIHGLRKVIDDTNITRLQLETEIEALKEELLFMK

B1: human monoclonal IgM antibody COU-1 (antibody, V domains shown)
VH: GAEVKKPGASVKVSCKASDYTFSSYYMHWVRQAPGQGLEWMGIINPSGGSTSYAQKFQGRVTMTRDTSTNTVYMELSSLRSEDTAVYYCARDQVVVAATLSNYGMDVWGQGTTVTVSS
VL: ELTQSPGTLSLSPGERATLSCRASQSVSSSYLAWYQQKPGQAPRLLIYDASNRATGIPARFSGSGSGTDFTLTISSLEPEDFAVYYCQQGTNWGIAFGQGTRLDIKR
notes: Human IgM with kappa light chain, secreted by hybridoma B9165 (ECACC 87040201), purified from culture supernatant; also called HMab COU-1; HuMab COU-1
- EC50 (read off the curve) [1]: ~0.6 mg/L
- binding result [2]: no binding (tested: 5 µg/ml COU-1 (P-0279))
- binding result [3]: no binding (tested: 5 µg/ml COU-1 (P-0279))
- binding result [4]: no binding (tested: 5 µg/ml COU-1 (P-0279))
- binding result [5]: no binding (tested: 5 µg/ml COU-1 (P-0279))
- binding result [6]: no binding (tested: 5 µg/ml COU-1 (P-0279))
- binding result [7]: no binding (tested: 5 µg/ml COU-1 (P-0279))
- binding result [8]: no binding (tested: 5 µg/ml COU-1 (P-0279))
